Assay results reported in patent publication US20210292416A1 (Eli Lilly, published 2021).
One block for each binder: values may come before it.

Key:
[1] = target: T1, human CD137-ECD-C121S-Fc mutant P27L (human, UniProt Q07011 24-186); test: point ELISA on coated CD137-Fc mutant, mean of normalised absorbance over eight concentrations
T1 construct: Mutant of human CD137-ECD-C121S-Fc; not shown: Fc part
Text: (§1) The CD137-Fc mutants are generated using the standard protocol of a commercially-available site directed mutagenesis kit (Quickchange II kit, […]). The wild-type and mutant CD137-Fc proteins are expressed and purified. […] To determine the impact of a mutation on the binding of the antibodies, a point ELISA assay against CD137-Fc wild type and mutants is utilized. The wells of a 96-well Immulon 4HBX ELISA plate are coated overnight with 50 nanograms of human CD137-ECD-C121S-Fc or its mutants in 100 microliters of PBS, pH 7.2 with mild agitation at 4° C. After blocking (with 5% BSA in PBST) and washing, a five-fold dilution eight-point series (100 to 0.00128 nanomolar) of the designated antibody is added and incubated with mild agitation at room temperature for 1 h. The wells are washed and a HRP-conjugated secondary antibody (1:10000 dilution of HRP-conjugated goat anti-Fab antibody (Jackson ImmunoResearch Laboratories) is added and incubated at room temperature following standard protocol. TMB peroxidase chromogenic substrate and stop solution are used according to manufacturer's instruction for visualization and detection of signals. Absorbance readings for each concentration point is normalized by the absorbance of the wild-type interaction. For each mutant, the mean of the normalized ratio for the eight concentrations is determined.

[2] = target: T2, human CD137-ECD-C121S-Fc mutant G98Q (human, UniProt Q07011 24-186); test: as above
T2 construct: Mutant of human CD137-ECD-C121S-Fc; not shown: Fc part
Text: as §1

[3] = target: T3, human CD137-ECD-C121S-Fc mutant D63N (human, UniProt Q07011 24-186); test: as above
T3 construct: Mutant of human CD137-ECD-C121S-Fc; not shown: Fc part
Text: as §1

[4] = target: T4, human CD137-ECD-C121S-Fc mutant K114E (human, UniProt Q07011 24-186); test: as above
T4 construct: Mutant of human CD137-ECD-C121S-Fc; not shown: Fc part
Text: as §1

[5] = target: T5, human CD137-ECD-C121S-Fc mutant M101R (human, UniProt Q07011 24-186); test: as above
T5 construct: Mutant of human CD137-ECD-C121S-Fc; not shown: Fc part
Text: as §1

[6] = target: T6, human CD137-ECD-C121S-Fc mutant S100T (human, UniProt Q07011 24-186); test: as above
T6 construct: Mutant of human CD137-ECD-C121S-Fc; not shown: Fc part
Text: as §1

[7] = target: T7, human CD137-ECD-C121S-Fc mutant Q67R (human, UniProt Q07011 24-186); test: as above
T7 construct: Mutant of human CD137-ECD-C121S-Fc; not shown: Fc part
Text: as §1

[8] = target: T8, human CD137-ECD-C121S-Fc mutant K115Q (human, UniProt Q07011 24-186); test: as above
T8 construct: Mutant of human CD137-ECD-C121S-Fc; not shown: Fc part
Text: as §1

[9] = target: T9, human CD137-ECD-C121S-Fc mutant A97P (human, UniProt Q07011 24-186); test: as above
T9 construct: Mutant of human CD137-ECD-C121S-Fc; not shown: Fc part
Text: as §1

[10] = target: T10, human CD137-ECD-C121S-Fc mutant G98K (human, UniProt Q07011 24-186); test: as above
T10 construct: Mutant of human CD137-ECD-C121S-Fc; not shown: Fc part
Text: as §1

[11] = target: T11, human CD137-ECD-C121S-Fc mutant Q67V (human, UniProt Q07011 24-186); test: as above
T11 construct: Mutant of human CD137-ECD-C121S-Fc; not shown: Fc part
Text: as §1

[12] = target: T12, human CD137-ECD-C121S-Fc mutant Q104K (human, UniProt Q07011 24-186); test: as above
T12 construct: Mutant of human CD137-ECD-C121S-Fc; not shown: Fc part
Text: as §1

human PD-1 (on cells) [13] = target: T13, human PD-1 (on cells) (human, UniProt Q15116 25-288); test: cell-based or functional assay
[14] = target: T14, human PD-1-extracellular domain (ECD) (human, UniProt Q15116 25-170); test: SPR (Biacore 2000) at 37 C, antibody captured on Protein A, soluble PD-1-ECD as analyte, 1:1 Langmuir fit, mean ± SD
T14 construct: also called human PD-1-ECD; PD-1-ECD
Description: Samples are diluted in HBS-EP+(10 mM HEPES, 150 mM NaCl, 0.05% Tween-20, pH 7.6) running buffer (Teknova Cat #H8022). Protein A (5 mg/mL, Calbiochem Cat #539202) is immobilized on flow cells 1 to 4 of a CM5 senor chip (GE Healthcare Cat #29149604) at a level of 3000 to 4000 response units (RUs) using amine coupling chemistry. Briefly, the surfaces of all four flow cells are activated by injecting a 1:1 mixture of EDC/NHS for 7-minutes at 10 μL/minute. Protein A is diluted to 200 μg/mL in 10 mM acetate, pH 4.5 buffer and immobilized for approximately 3000-4000 RUs onto all four flow cells by 7-minute injection at flow rate of 10 μL/minute. Unreacted sites are blocked with a 7-minute injection of 1M Ethanolamine-HCl pH 8.5 at 10 μL/minute. Five 30-second injections of glycine pH 1.5 at 10 μL/minute are used to remove any non-covalently associated protein.
Binding is evaluated using multi-cycle kinetics by an antibody capture method. […] All analyte concentrations are determined utilizing monomeric molecular weight (MW) values. Association rates (kₒₙ) and dissociation rates (koff) for PD-1-ECD are evaluated using double referencing by flow-cell 1 reference subtraction in addition to 0 nM blank subtraction and fit to “1:1 (Langmuir) binding” model in the BIAevaluation software version 4.1. […]

human PD-1 (on cells) [15] = target: T13, human PD-1 (on cells); test: cell-based or functional assay; remark: listed apart in the source
human CD137 (on cells) = human CD137 (on cells) (human, UniProt Q07011 24-255); test: cell-based or functional assay
human CD137-ECD = target: T15, human CD137-ECD (human, UniProt Q07011 24-186); test: SPR (Biacore 2000) at 37 C, antibody captured on Protein A, soluble CD137-ECD as analyte, steady state affinity fit
T15 construct: In-house generated soluble ECD

[16] = target: T16, human CD137-ECD-C121S-Fc mutant N42S (human, UniProt Q07011 24-186); test: point ELISA on coated CD137-Fc mutant, mean of normalised absorbance over eight concentrations
T16 construct: Mutant of human CD137-ECD-C121S-Fc; not shown: Fc part
Text: as §1

T13 sequence (Q15116 25-288 limits assumed): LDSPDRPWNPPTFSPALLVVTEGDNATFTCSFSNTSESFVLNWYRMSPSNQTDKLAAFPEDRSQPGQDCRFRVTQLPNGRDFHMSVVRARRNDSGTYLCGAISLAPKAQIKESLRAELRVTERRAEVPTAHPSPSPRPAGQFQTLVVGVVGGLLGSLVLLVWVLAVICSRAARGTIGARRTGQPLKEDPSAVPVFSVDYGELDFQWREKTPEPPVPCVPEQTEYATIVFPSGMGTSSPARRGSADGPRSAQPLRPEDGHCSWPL
Chain of human CD137 (on cells) (Q07011 24-255 limits assumed): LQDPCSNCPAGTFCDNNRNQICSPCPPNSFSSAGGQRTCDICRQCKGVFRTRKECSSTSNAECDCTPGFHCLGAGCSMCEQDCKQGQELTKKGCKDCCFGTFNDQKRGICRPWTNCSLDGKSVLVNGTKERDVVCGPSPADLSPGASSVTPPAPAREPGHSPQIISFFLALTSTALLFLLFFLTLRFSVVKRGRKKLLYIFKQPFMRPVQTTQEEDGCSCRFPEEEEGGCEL
T3 sequence (Q07011 24-186 D63N/C121S): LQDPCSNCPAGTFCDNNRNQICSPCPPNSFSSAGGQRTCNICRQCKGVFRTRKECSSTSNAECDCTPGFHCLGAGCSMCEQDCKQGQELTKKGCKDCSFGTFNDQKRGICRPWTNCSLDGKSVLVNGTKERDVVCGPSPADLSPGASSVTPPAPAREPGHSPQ
T8 sequence (Q07011 24-186 K115Q/C121S): as the sequence (Q07011 24-186 D63N/C121S) above, with N40D, K92Q counted along it
T10 sequence (Q07011 24-186 G98K/C121S): as the sequence (Q07011 24-186 D63N/C121S) above, with N40D, G75K counted along it
T4 sequence (Q07011 24-186 K114E/C121S): as the sequence (Q07011 24-186 D63N/C121S) above, with N40D, K91E counted along it
T11 sequence (Q07011 24-186 Q67V/C121S): as the sequence (Q07011 24-186 D63N/C121S) above, with N40D, Q44V counted along it
T6 sequence (Q07011 24-186 S100T/C121S): as the sequence (Q07011 24-186 D63N/C121S) above, with N40D, S77T counted along it
T12 sequence (Q07011 24-186 Q104K/C121S): as the sequence (Q07011 24-186 D63N/C121S) above, with N40D, Q81K counted along it
T1 sequence (Q07011 24-186 P27L/C121S): as the sequence (Q07011 24-186 D63N/C121S) above, with P4L, N40D counted along it
T7 sequence (Q07011 24-186 Q67R/C121S): as the sequence (Q07011 24-186 D63N/C121S) above, with N40D, Q44R counted along it
T5 sequence (Q07011 24-186 M101R/C121S): as the sequence (Q07011 24-186 D63N/C121S) above, with N40D, M78R counted along it
T9 sequence (Q07011 24-186 A97P/C121S): as the sequence (Q07011 24-186 D63N/C121S) above, with N40D, A74P counted along it
T2 sequence (Q07011 24-186 G98Q/C121S): as the sequence (Q07011 24-186 D63N/C121S) above, with N40D, G75Q counted along it
T14 sequence (Q15116 25-170 limits assumed): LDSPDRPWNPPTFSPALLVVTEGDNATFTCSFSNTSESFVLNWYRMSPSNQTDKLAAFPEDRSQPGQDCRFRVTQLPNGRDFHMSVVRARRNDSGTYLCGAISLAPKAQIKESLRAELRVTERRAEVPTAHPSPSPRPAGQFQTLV
T15 sequence (Q07011 24-186 limits assumed): as the sequence (Q07011 24-186 D63N/C121S) above, with N40D, S98C counted along it
T16 sequence (Q07011 24-186 N42S/C121S): as the sequence (Q07011 24-186 D63N/C121S) above, with N19S, N40D counted along it

% of binding relative to wild-type hCD137 [1]: 85%
% of binding relative to wild-type hCD137 [2]: 100%
% of binding relative to wild-type hCD137 [3]: 100%
% of binding relative to wild-type hCD137 [4]: 100%
% of binding relative to wild-type hCD137 [5]: 100%
% of binding relative to wild-type hCD137 [6]: 100%
% of binding relative to wild-type hCD137 [7]: 100%
% of binding relative to wild-type hCD137 [8]: 100%
% of binding relative to wild-type hCD137 [9]: 100%
% of binding relative to wild-type hCD137 [10]: 100%
% of binding relative to wild-type hCD137 [11]: 100%
% of binding relative to wild-type hCD137 [12]: 100%
B1: BMS20H4.9 (antibody, V domains shown)
VH: QVQLQQWGAGLLKPSETLSLTCAVYGGSFSGYYWSWIRQSPEKGLEWIGEINHGGYVTYNPSLESRVTISVDTSKNQFSLKLSSVTAADTAVYYCARDYGPGNYDWYFDLWGRGTLVTVSS
VL: EIVLTQSPATLSLSPGERATLSCRASQSVSSYLAWYQQKPGQAPRLLIYDASNRATGIPARFSGSGSGTDFTLTISSLEPEDFAVYYCQQRSNWPPALTFGGGTKVEIKR

EC50, NFAT-Luc reporter assay (Jurkat PD-1+CD137+NFAT-Luc2 cells with CHO-K1 PD-L1+TCR activator cells) (human PD-1 (on cells) [13]): 1.4 nM
Kd [14]: 3.1 nM
IFN-γ mean EC50 in allogeneic MLR assay (3 donor pairs) (human PD-1 (on cells) [15]): 88 pM
IL-2 mean EC50 in allogeneic MLR assay (3 donor pairs) (human PD-1 (on cells) [15]): 0.238 nM
B2: Antibody p-11444 (the parental antibody of the anti-PD1 arm of Antibody A) (antibody, V domains shown)
VH: QVQLVQSGAEVKKPGSSVKVSCKASGGTFSSYAISWVRQAPGQGLEWMGLIIPMFDTAGYAQKFQGRVAITVDESTSTAYMELSSLRSEDTAVYYCARAEHSSTGTFDYWGQGTLVTVSS
VL: DIQMTQSPSSVSASVGDRVTITCRASQGISSWLAWYQQKPGKAPKLLISAASSLQSGVPSRFSGSGSGTDFTLTISSLQPEDFATYYCQQANHLPFTFGGGTKVEIK
notes: Parental monoclonal anti-PD-1 antibody

fold induction of NFkB-Luc luciferase signal at 0.01 nM antibody (human CD137 (on cells)): 0.98 fold
fold induction of NFkB-Luc luciferase signal at 0.04 nM antibody (human CD137 (on cells)): 0.88 fold
fold induction of NFkB-Luc luciferase signal at 0.15 nM antibody (human CD137 (on cells)): 0.94 fold
fold induction of NFkB-Luc luciferase signal at 0.59 nM antibody (human CD137 (on cells)): 1.07 fold
fold induction of NFkB-Luc luciferase signal at 2.34 nM antibody (human CD137 (on cells)): 1.66 fold
fold induction of NFkB-Luc luciferase signal at 9.38 nM antibody (human CD137 (on cells)): 2.29 fold
fold induction of NFkB-Luc luciferase signal at 37.50 nM antibody (human CD137 (on cells)): 2.72 fold
fold induction of NFkB-Luc luciferase signal at 150.00 nM antibody (human CD137 (on cells)): 2.6 fold
Kd (human CD137-ECD): 341 nM
% of binding relative to wild-type hCD137 [1]: 100%
% of binding relative to wild-type hCD137 [2]: 100%
% of binding relative to wild-type hCD137 [16]: 100%
% of binding relative to wild-type hCD137 [3]: 100%
% of binding relative to wild-type hCD137 [4]: 20%
% of binding relative to wild-type hCD137 [5]: 100%
% of binding relative to wild-type hCD137 [6]: 100%
% of binding relative to wild-type hCD137 [7]: 100%
% of binding relative to wild-type hCD137 [8]: 25%
% of binding relative to wild-type hCD137 [9]: 15%
% of binding relative to wild-type hCD137 [10]: 85%
% of binding relative to wild-type hCD137 [11]: 100%
% of binding relative to wild-type hCD137 [12]: 100%
IFN-γ mean EC50 in allogeneic MLR assay (3 donor pairs) (human PD-1 (on cells) [15]): > 32 nM
IL-2 mean EC50 in allogeneic MLR assay (3 donor pairs) (human PD-1 (on cells) [15]): > 32 nM
B3: Antibody p-7A5 (the parental antibody of the anti-CD137 arm of Antibody A) (antibody, V domains shown)
VH: QVQLVQSGAEVKKPGSSVKVSCKASGGTFSSYAISWVRQAPGQGLEWMGGIIPIFGTANYAQKFQGRVTITADESTSTAYMELSSLRSEDTAVYYCARDLMTTAPGTYFDLWGRGTLVTVSS
VL: AIRMTQSPPSLSASVGDRVTITCQASQDIGNSLGWYQQKPGKAPKLVIFDASDLETGVPSRFSGSGSGTDFSLTISSLQPEDFATYYCQQGNSFPLTFGQGTRLEIK
notes: Parental monoclonal anti-CD137 antibody; also called Antibody 7A5; parental antibody 7A5
